Laboratory results taken from patent publication US20080044360A1 (COLLAGEN MEDICAL, published 2008).
Bridge positions count the residues as written; N and C are the ends. Square brackets hold non-standard residues; d marks the D form. Ends that are not written are not given here. NMeA = CN[C@@H](C)C(=O)O; Sar = CNCC(=O)O

Target: T1, human collagen type I, acid soluble, extracted from placenta (Sigma C7774) (human, UniProt P02452 162-1218; P08123 80-1119)
T1 construct: tissue extract, gelled and dried in wells; also called dried human collagen; h-Collagen
Experiment: dried collagen assay
Method: (§1) An additional 90 μL is reserved in a HPLC glass vial as a measure of the total concentration.

T1 sequence (P02452 162-1218 limits assumed, chain 1 of 2): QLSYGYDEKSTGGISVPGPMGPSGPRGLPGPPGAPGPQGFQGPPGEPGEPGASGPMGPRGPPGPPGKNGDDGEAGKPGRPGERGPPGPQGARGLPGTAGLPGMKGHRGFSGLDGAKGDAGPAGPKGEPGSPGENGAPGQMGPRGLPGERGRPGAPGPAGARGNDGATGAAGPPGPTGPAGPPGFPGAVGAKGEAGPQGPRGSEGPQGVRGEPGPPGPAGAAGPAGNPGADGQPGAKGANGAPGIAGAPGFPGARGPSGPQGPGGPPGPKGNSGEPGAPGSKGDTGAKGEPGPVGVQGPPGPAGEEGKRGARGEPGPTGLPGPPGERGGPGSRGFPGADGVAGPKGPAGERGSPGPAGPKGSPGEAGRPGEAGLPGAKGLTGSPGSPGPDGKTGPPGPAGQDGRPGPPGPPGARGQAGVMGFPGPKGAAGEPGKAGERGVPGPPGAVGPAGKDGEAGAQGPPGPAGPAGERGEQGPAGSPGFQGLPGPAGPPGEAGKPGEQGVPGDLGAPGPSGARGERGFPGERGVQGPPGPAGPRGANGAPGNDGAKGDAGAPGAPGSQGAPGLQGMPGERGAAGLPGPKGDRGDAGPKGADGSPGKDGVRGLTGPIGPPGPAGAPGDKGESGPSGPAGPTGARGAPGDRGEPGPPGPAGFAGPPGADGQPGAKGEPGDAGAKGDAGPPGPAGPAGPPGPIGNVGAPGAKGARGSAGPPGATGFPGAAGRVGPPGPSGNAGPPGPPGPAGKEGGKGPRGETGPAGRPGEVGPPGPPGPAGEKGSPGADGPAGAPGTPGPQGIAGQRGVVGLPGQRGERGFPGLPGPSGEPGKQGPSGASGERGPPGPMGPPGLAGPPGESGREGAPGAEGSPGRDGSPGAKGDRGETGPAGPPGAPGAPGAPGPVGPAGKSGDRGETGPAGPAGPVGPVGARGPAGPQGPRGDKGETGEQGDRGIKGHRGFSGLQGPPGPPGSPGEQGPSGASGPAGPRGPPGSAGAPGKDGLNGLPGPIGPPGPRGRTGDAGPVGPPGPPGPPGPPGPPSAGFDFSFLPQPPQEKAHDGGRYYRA
T1 sequence (P08123 80-1119 limits assumed, chain 2 of 2): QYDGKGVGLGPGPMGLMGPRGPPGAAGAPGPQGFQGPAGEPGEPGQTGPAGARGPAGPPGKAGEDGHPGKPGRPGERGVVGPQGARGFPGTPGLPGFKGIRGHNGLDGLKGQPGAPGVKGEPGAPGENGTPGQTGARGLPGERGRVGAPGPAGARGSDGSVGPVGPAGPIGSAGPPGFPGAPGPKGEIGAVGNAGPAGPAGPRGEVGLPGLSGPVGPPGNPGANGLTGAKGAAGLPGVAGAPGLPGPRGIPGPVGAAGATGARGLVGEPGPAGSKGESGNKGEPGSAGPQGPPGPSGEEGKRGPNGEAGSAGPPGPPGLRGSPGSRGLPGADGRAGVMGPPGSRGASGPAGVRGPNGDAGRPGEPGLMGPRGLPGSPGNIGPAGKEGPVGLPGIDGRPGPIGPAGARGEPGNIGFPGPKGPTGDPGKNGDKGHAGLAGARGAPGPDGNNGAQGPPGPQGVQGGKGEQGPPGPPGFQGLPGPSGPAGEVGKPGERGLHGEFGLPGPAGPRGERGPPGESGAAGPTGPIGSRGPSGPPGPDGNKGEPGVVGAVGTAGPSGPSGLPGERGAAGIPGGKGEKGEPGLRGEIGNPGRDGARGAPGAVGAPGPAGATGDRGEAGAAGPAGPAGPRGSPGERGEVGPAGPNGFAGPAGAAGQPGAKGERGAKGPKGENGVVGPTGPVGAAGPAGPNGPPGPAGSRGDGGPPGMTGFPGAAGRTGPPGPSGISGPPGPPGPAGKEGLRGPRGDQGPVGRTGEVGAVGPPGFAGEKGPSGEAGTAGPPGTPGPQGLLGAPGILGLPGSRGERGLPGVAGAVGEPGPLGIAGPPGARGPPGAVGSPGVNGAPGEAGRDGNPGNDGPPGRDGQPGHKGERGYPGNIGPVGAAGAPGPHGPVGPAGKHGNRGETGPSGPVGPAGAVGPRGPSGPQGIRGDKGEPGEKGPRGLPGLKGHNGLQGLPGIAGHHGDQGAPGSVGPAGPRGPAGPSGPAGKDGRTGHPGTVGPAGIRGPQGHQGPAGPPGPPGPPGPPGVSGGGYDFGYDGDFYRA

Row | Binder | % bound
1 | FGACDIFPTFHTCPGV (disulfide 4-13 (inferred), cyclic, disulfide) [SEQ ID NO 76] | 1%
2 | SWHCALMGSRWVCGQN (disulfide 4-13 (inferred), cyclic, disulfide) [SEQ ID NO 71] | 3%
3 | TWACDLDEYGGWQCYTG (disulfide 4-14 (inferred), cyclic, disulfide) [SEQ ID NO 78] | 8%
4 | ERNCVLNDFRWTCGGD (disulfide 4-13 (inferred), cyclic, disulfide) [SEQ ID NO 75] | 10%
5 | PWTCRMTENTWVCDLN (disulfide 4-13 (inferred), cyclic, disulfide) [SEQ ID NO 47] | 22%
6 | SWHCALVENSWQCSEA (disulfide 4-13 (inferred), cyclic, disulfide) [SEQ ID NO 73] | 1%
7 | NWYCSQALDNWSCKLR (disulfide 4-13 (inferred), cyclic, disulfide) [SEQ ID NO 63] | 8%
8 | TWICSHNDKGWTCGDQ (disulfide 4-13 (inferred), cyclic, disulfide) [SEQ ID NO 64] | 8%
9 | SWNCHMIRNEWRCTGH (disulfide 4-13 (inferred), cyclic, disulfide) [SEQ ID NO 56] | 11%
10 | FWTCMRDQVGEWHCGTE (disulfide 4-14 (inferred), cyclic, disulfide) [SEQ ID NO 88] | 1%
11 | HWTCDQAKGGAWSCSST (disulfide 4-14 (inferred), cyclic, disulfide) [SEQ ID NO 87] | 1%
12 | YHACYQ[NMeA]GCWIW (disulfide 4-9 (inferred), cyclic, disulfide; also called YHACYQA'GCWIW) [SEQ ID NO 105] | 9%
13 | EWHCVFIQGDWLCNSG (disulfide 4-13 (inferred), cyclic, disulfide) [SEQ ID NO 72] | 1%
14 | GWQCQGTDSLDWKCLYM (disulfide 4-14 (inferred), cyclic, disulfide) [SEQ ID NO 77] | 12%
15 | TWACGWTTTGWDNCRWI (disulfide 4-14 (inferred), cyclic, disulfide) [SEQ ID NO 92] | 34%
16 | HWSCYLGDNGWNCHDR (disulfide 4-13 (inferred), cyclic, disulfide) [SEQ ID NO 62] | 9%
17 | AWSCWIVEGRWNCSDI (disulfide 4-13 (inferred), cyclic, disulfide) [SEQ ID NO 48] | 22%
18 | EWHCVLNDFRWTCGGD (disulfide 4-13 (inferred), cyclic, disulfide) [SEQ ID NO 60] | 10%
19 | GWVCMMRETDWNCSI (disulfide 4-13 (inferred), cyclic, disulfide) [SEQ ID NO 58] | 10%
20 | KWSCYMVDHQWYCREF (disulfide 4-13 (inferred), cyclic, disulfide) [SEQ ID NO 61] | 9%
21 | HWQCRLTDYGWNCDER (disulfide 4-13 (inferred), cyclic, disulfide) [SEQ ID NO 59] | 10%
22 | FWTCELDFRQSWYCYDK (disulfide 4-14 (inferred), cyclic, disulfide) [SEQ ID NO 79] | 8%
23 | KWHCELDSHMEWSCSGH (disulfide 4-14 (inferred), cyclic, disulfide) [SEQ ID NO 89] | 1%
24 | MWNCTMTKSGWRCFEK (disulfide 4-13 (inferred), cyclic, disulfide) [SEQ ID NO 54] | 12%

Row | Binder | % bound
25 | KWFCELMQDQWQCGSK (disulfide 4-13 (inferred), cyclic, disulfide) [SEQ ID NO 50] | 18%
26 | KWFCELMHDQWQCGSK (disulfide 4-13 (inferred), cyclic, disulfide) [SEQ ID NO 51] | 18%
27 | YSACYQAGCWIW (disulfide 4-9 (inferred), cyclic, disulfide) [SEQ ID NO 109] | 21%
28 | YHACYQAACWIW (disulfide 4-9 (inferred), cyclic, disulfide) [SEQ ID NO 135] | 72%
29 | YHACYAAGCWIW (disulfide 4-9 (inferred), cyclic, disulfide) [SEQ ID NO 134] | 14%
30 | AHACYQAGCWIW (disulfide 4-9 (inferred), cyclic, disulfide) [SEQ ID NO 131] | 7%
31 | GWFCKLVDGNWECSTK (disulfide 4-13 (inferred), cyclic, disulfide) [SEQ ID NO 53] | 12%
32 | HWQCGEKMSFWSCELV (disulfide 4-13 (inferred), cyclic, disulfide) [SEQ ID NO 69] | 3%
33 | YHACYQA[Sar]CWIW (disulfide 4-9 (inferred), cyclic, disulfide) [SEQ ID NO 104] | 12%
34 | YHACYQAGCWIY (disulfide 4-9 (inferred), cyclic, disulfide) [SEQ ID NO 106] | 9%
35 | YSACYQAGCYIY (disulfide 4-9 (inferred), cyclic, disulfide) [SEQ ID NO 110] | 10%
36 | YAACYQAGCWIW (disulfide 4-9 (inferred), cyclic, disulfide) [SEQ ID NO 132] | 53%
37 | YHACYQAGCAIW (disulfide 4-9 (inferred), cyclic, disulfide) [SEQ ID NO 136] | 2%
38 | GWVCLQKGPKWVCDWD (disulfide 4-13 (inferred), cyclic, disulfide) [SEQ ID NO 46] | 23%
39 | RWSCWLDENGWKCDGT (disulfide 4-13 (inferred), cyclic, disulfide) [SEQ ID NO 52] | 15%
40 | AWFCSQKNRLWSCGET (disulfide 4-13 (inferred), cyclic, disulfide) [SEQ ID NO 49] | 19%
41 | SWNCHWRNQGWLCSGG (disulfide 4-13 (inferred), cyclic, disulfide) [SEQ ID NO 55] | 12%
42 | RWTCDLQRGDWQCSTI (disulfide 4-13 (inferred), cyclic, disulfide) [SEQ ID NO 57] | 11%
43 | FWRCALLDGHWQCTDH (disulfide 4-13 (inferred), cyclic, disulfide) [SEQ ID NO 70] | 3%
44 | SWYCDWDDRKGWMCGSD (disulfide 4-14 (inferred), cyclic, disulfide) [SEQ ID NO 86] | 2%
45 | TWACGWTTTGWDNCRWI (disulfide 4-14 (inferred), cyclic, disulfide) [SEQ ID NO 90] | 34%
46 | TWACGWTTAGWDNCRWI (disulfide 4-14 (inferred), cyclic, disulfide) [SEQ ID NO 91] | 28%
47 | TWMCVDPPLWRCWVQ (disulfide 4-12 (inferred), cyclic, disulfide) [SEQ ID NO 4] | 45%

Target: T2, rat collagen, acid soluble, type I, rat tail (Upstate 08-115) (rat, UniProt P02454 152-1207; P02466 86-1125)
T2 construct: tissue extract, gelled and dried in wells; also called dried rat collagen
Experiment: dried collagen assay
Method: as §1

T2 sequence (P02454 152-1207, chain 1 of 2): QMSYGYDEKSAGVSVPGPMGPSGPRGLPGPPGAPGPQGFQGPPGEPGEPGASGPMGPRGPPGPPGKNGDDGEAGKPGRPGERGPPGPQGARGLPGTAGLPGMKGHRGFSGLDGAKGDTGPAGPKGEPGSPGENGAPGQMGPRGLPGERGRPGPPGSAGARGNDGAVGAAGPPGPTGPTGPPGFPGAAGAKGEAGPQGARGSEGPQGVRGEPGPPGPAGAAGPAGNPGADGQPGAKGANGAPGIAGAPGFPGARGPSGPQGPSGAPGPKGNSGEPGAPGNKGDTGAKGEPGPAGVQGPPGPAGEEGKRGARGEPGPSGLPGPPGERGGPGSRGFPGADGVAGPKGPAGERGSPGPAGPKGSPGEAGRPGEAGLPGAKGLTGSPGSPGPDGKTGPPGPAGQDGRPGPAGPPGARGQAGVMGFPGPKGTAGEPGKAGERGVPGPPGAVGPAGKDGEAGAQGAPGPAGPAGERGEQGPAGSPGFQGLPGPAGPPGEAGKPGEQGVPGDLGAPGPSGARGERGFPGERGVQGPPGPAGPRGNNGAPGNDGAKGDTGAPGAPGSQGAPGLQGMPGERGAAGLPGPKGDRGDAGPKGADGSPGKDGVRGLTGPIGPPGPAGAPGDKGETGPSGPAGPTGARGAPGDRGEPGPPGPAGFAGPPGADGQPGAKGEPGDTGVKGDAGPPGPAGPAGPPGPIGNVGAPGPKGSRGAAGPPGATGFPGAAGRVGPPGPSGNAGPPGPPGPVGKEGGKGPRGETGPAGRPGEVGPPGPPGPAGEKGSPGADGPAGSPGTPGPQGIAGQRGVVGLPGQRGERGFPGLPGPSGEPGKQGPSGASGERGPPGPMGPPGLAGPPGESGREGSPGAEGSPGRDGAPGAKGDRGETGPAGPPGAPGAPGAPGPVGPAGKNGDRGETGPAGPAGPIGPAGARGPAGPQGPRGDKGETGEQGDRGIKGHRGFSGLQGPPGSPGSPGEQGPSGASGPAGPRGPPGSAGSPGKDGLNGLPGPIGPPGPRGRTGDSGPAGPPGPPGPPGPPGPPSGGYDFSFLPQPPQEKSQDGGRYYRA
T2 sequence (P02466 86-1125, chain 2 of 2): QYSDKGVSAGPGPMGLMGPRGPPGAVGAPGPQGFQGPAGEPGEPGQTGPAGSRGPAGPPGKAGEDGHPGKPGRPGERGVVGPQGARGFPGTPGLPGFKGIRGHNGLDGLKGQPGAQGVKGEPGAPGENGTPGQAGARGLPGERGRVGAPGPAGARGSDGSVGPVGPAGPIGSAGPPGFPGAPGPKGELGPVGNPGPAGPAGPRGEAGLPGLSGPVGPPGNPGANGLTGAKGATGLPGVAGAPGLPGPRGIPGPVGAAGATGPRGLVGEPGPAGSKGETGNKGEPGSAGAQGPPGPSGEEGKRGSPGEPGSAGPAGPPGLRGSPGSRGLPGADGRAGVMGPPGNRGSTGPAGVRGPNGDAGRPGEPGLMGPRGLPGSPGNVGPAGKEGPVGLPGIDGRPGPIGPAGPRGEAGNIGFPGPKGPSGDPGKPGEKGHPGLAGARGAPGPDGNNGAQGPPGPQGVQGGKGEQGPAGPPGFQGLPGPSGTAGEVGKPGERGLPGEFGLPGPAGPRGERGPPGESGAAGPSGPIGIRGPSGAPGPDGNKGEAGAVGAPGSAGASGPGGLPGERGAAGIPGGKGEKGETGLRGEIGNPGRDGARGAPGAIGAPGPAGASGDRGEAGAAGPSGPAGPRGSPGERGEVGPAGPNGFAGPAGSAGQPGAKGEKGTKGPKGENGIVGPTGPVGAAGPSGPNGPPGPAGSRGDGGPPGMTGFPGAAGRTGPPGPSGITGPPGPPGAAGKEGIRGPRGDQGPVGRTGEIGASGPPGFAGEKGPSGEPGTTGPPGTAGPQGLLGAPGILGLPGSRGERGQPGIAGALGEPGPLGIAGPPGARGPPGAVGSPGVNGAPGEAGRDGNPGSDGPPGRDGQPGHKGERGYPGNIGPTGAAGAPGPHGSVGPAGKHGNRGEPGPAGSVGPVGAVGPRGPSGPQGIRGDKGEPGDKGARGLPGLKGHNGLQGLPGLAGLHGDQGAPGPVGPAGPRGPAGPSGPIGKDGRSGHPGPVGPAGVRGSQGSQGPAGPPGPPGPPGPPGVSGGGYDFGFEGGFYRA

Row | Binder | % bound
48 | YHACYQAG[dC]WIW (disulfide 4-9 (inferred); not fully specified (C-terminus); printed as YHACYQAGcWIW, cyclic, disulfide) [SEQ ID NO 159] | 27%
49 | QWT[dC]SGDEYTWHCNYE (disulfide 4-13 (inferred); not fully specified (N-terminus, C-terminus); printed as QWTcSGDEYTWHCNYE, cyclic, disulfide) [SEQ ID NO 167] | 0%
50 | GQWTCSGDEYTAHCNYE (disulfide 5-14 (inferred); not fully specified (C-terminus), cyclic, disulfide) [SEQ ID NO 147] | 1%
51 | YHACYQ[NMeA]GCWIW (disulfide 4-9 (inferred), cyclic, disulfide; also called YHACYQA'GCWIW) [SEQ ID NO 105] | 23%
52 | YSACYQAGCWIW (disulfide 4-9 (inferred), cyclic, disulfide) [SEQ ID NO 109] | 37%
53 | YHACYQAACWIW (disulfide 4-9 (inferred), cyclic, disulfide) [SEQ ID NO 135] | 88%
54 | YHACYAAGCWIW (disulfide 4-9 (inferred), cyclic, disulfide) [SEQ ID NO 134] | 1%
55 | AHACYQAGCWIW (disulfide 4-9 (inferred), cyclic, disulfide) [SEQ ID NO 131] | 12%
56 | YHACYQA[Sar]CWIW (disulfide 4-9 (inferred), cyclic, disulfide) [SEQ ID NO 104] | 19%
57 | YHACYQAGCWIY (disulfide 4-9 (inferred), cyclic, disulfide) [SEQ ID NO 106] | 24%
58 | YSACYQAGCYIY (disulfide 4-9 (inferred), cyclic, disulfide) [SEQ ID NO 110] | 2%
59 | YAACYQAGCWIW (disulfide 4-9 (inferred), cyclic, disulfide) [SEQ ID NO 132] | 37%
60 | YHACYQAGCAIW (disulfide 4-9 (inferred), cyclic, disulfide) [SEQ ID NO 136] | 2%
61 | YHACYQAGCYIY (disulfide 4-9 (inferred), cyclic, disulfide) [SEQ ID NO 108] | 12%
62 | QWTCSGDEYTW[dH]CNYE (disulfide 4-13 (inferred); not fully specified (N-terminus); printed as QWTCSGDEYTWhCNYE, cyclic, disulfide) [SEQ ID NO 174] | 0%
